Patent publication US20140220033A1, “Administration of an Anti-Activin-A Compound to a Subject” (Santa Maria Biotherapeutics, Inc., priority 2013, published 2014)

Assays:
[1] = test system: E-cadherin; test: E-cadherin in ovarian tumors of inh-KO mice (Western blot, immunostaining); type: in vivo, mouse
Method: (§1) 12-week-old female and 8-week-old male inh-KO mice with fully established ovarian or testicular tumors received a single injection of PBS or sActRIIB (30 mg/kg, SC). As a control, age-matched wild-type littermates received a single injection of PBS. Ovarian and testicular organ weights were determined by necropsy 14 days after the injection.
(§2) Protein extracts were prepared from cell cultures or tissues in T-PER tissue protein extraction reagent (Pierce) containing a mixture of protease inhibitors (Roche). A pool of 50 μg total protein for each group containing equal amounts of protein extract isolated from individual animals was separated by NuPAGE 4-12% Bis-Tris gel (Invitrogen) and transferred to PVDF. The membranes were probed with primary antibodies against total Smad2, p-Smad2 or E-cadherin (1:1000; Cell Signaling), endoglin, osteopontin (1:500; R&D Systems), IGFBP-1, IGFBP-2 (1:500; Abcam) followed by HRP-conjugated secondary antibody (1:2000; Cell Signaling). The membranes were stripped and re-probed with antibody against α-tubulin (1:1000; Cell Signaling).
Zinc-formalin fixed paraffin tumor tissue sections of 4 μm in thickness were prepared. […] The immunostained tissue sections were analyzed and photographed using a Nikon Eclipse 90i microscope equipped with DS-Ril camera. […]

[2] = test system: Smad2 signaling (phospho-Smad2); test: Western blot of phospho-Smad2 in tumors of inh-KO mice; type: in vivo, mouse; details: increase over WT controls, FIG. 5B
Method: as §1, §2

[3] = test system: testicular tumors in inh-KO mice; test: Testicular tumor mass in inh-KO mice (necropsy); type: in vivo, mouse; details: 8-week-old male inh-KO mice; single dose 30 mg/kg SC; necropsy 14 days after injection; FIG. 4A, 4B
Method: as §1

[4] = target: T1, activin-A (Mus musculus, UniProt Q04998); test: Serum activin-A levels in inh-KO mice (ELISA); type: in vivo; details: single dose 30 mg/kg SC
T1 construct: from tissue; host or cells: serum of inhibin-alpha knockout (inh-KO) mice and wild-type littermates
T1 sequence (Q04998 309-424): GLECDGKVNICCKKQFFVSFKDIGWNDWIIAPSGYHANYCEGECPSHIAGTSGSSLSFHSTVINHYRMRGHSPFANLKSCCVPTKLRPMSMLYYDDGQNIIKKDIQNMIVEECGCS
Method: as §1
All serum samples from ovarian cancer patients and healthy subjects were collected under informed consent and were purchased from Bioreclamation, Inc. The serum samples were diluted in buffer (DY995, R&D Systems) and pretreated overnight at 4° C. with 4 M urea (Sigma) to dissociate any protein bound to activin-A. The samples were then transferred to 96 well plates pre-coated with an activin-A monoclonal antibody. After 2 hr incubation at room temperature and a washing step (0.05% Tween 20 in DPBS), a biotin-labeled activin-A monoclonal antibody was added for 1 hr at room temperature. […] An acidic stopping solution (KPL) was added and the degree of enzymatic turnover of the substrate was determined by wavelength absorbance measurement at 450 nm. The absorbance measured is directly proportional to the concentration of activin-A present. A standard curve of absorbance versus activin-A concentration was used to determine the amount of Activin-A in the test sample. Serum activin-A levels in inh-KO mice were measured by using ELISA.

[5] = test system: testicular tumors in inh-KO mice; test: Light microscopy (H&E) of testes of inh-KO mice; type: in vivo, mouse; details: male inh-KO mice; FIG. 7B
Method: as §1
Testes and ovaries from inh-KO mice were fixed with Zinc-formalin. Tissue sections were subjected to H&E staining and then examined with a Nikon Eclipse 90i microscope.

[6] = test system: DNA fragmentation (apoptosis) in TOV-21G tumors; test: TUNEL assay in TOV-21G xenograft tumor sections; type: in vivo, mouse; details: FIG. 15C
Method: 5×10^6 TOV-21G ovarian cancer cells were implanted subcutaneously into individual female athymic nu/nu mice (Harlan). Treatment was initiated at day 12 after tumor implantation, when the average tumor volume reached approximately 150 mm^3. The mice received PBS, sActRIIB (30 mg/kg, SC, 1×/week) or activin-A antibody (30 mg/kg, SC, 2×/week). In a separate chemotherapy combination experiment, the mice were treated with PBS, sActRIIB (10 mg/kg, SC, 1×/week), 5-FU (50 mg/kg, IP, 3 cycles, 4 daily injections per cycle) or sActRIIB and 5-FU combination at the same doses above.
Cell apoptosis in TOV-21G tumors was analyzed by measuring the amounts of fragmented DNA in the tumor sections using the DeadEnd Fluorometric TUNEL System following the manufacturer's recommended protocols (Promega, G3250). The fluorescein-12-dUTP-labeled DNA was visualized by Nikon fluorescence microscopy.

[7] = test system: activin-A (βA) mRNA; test: Endogenous activin-A (βA) mRNA in cell cultures (real-time RT-PCR); type: cell-based, human, bovine; details: TOV21G, BAEC, MRC-5, CCD-Lu, U937 and THP-1 cultures treated with recombinant activin-A, without or with sActRIIB; FIG. 18

B1: sActRIIB: extracellular domain of human activin type-2B receptor fused to IgG2 Fc, expressed in CHO cells; sequence in the 26th table (protein)
chain: ETRWCIYYNANWELERTNQGLERCEGEQDKRLHCYASWRNSSGTIELVKKGCWLDDFNCYDRQECVATEENPQVYFCCCEGNFCNERFTHLPEAGGPEVTYEPPPTAPTGGGGSVECPPCPAPPVAGPSVFLFPPKPKDTLMISRTPEVTCVVVDVSHEDPEVQFNWYVDGVEVHNAKTKPREEQFNSTFRVVSVLTVVHQDWLNGKEYKCKVSNKGLPAPIEKTISKTKGQPREPQVYTLPPSREEMTKNQVSLTCLVKGFYPSDIAVEWESNGQPENNYKTTPPMLDSDGSFFLYSKLTVDKSRWQQGNVFSCSVMHEALHNHYTQKSLSLSPGK
modifications: left off: a dimerising Fc or GST
E-cadherin immunoreactivity in ovarian sections ([1]; FIG. 6B): reappearance of distinctive E-cadherin immunoreactivity
E-cadherin protein in ovarian tumors (Western blot) ([1]; single injection, FIG. 6A): dramatically restored the lost E-cadherin
phospho-Smad2 in tumor tissues (Western blot) [2]: eliminated this increase in phospho-Smad2
testicular tumor mass [3]: dramatic regression of testicular tumor masses to the WT control levels
serum activin-A levels ([4]; inh-KO mice with established gonadal tumors, within one day after administration, FIG. 2A, 2B): reduced the elevated activin-A in the inh-KO mice to normal control levels
duration of activin-A-neutralizing effect ([4]; inh-KO mice): persisted throughout the 14-day study period
testicular morphology (light microscopy) [5]: the testes were normal in size and filled with seminiferous tubules
DNA fragmentation (TUNEL) in TOV-21G tumors [6]: profound increases
endogenous βA mRNA expression [7]: blocked completely
